In publication PMC11259713, “Splicing factor hnRNPA1 regulates alternative splicing of LOXL2 to enhance the production of LOXL2Δ13”:
Numbering of substitutions follows the chain as printed. Names and notes keep the numbering of the source.

Key:
Conditions in all cases: protein: recombinant; tags: His (pET-32a vector)
[1] = biological target: T1, hnRNPA1-His (hnRNPA1A) (UniProt P09651-2 1-320); assay: BLI; protein on Ni-NTA probe; KD only in figure; BLI: PBS, 0.002% Tween-20, 0.02% BSA, temperature not stated; pull-down: lysate in 150 mM KCl, 0.5 mM DTT, 0.5% NP-40, 25 mM Tris-HCl pH 7.5, 4 C overnight
[2] = biological target: S91A/S95A-His (UniProt P09651-2 1-320, S91A;S95A); assay: BLI; protein on Ni-NTA probe; affinity and amount higher than WT; KD only in figure; BLI: PBS, 0.002% Tween-20, 0.02% BSA, temperature not stated; pull-down: lysate in 150 mM KCl, 0.5 mM DTT, 0.5% NP-40, 25 mM Tris-HCl pH 7.5, 4 C overnight
[3] = biological target: S91D/S95D-His (UniProt P09651-2 1-320, S91D;S95D); assay: BLI; similar or stronger affinity than WT but reduced binding amount; KD only in figure; BLI: PBS, 0.002% Tween-20, 0.02% BSA, temperature not stated; pull-down: lysate in 150 mM KCl, 0.5 mM DTT, 0.5% NP-40, 25 mM Tris-HCl pH 7.5, 4 C overnight
[4] = biological target: T1, hnRNPA1-His (hnRNPA1A); assay: pull-down; purified protein; BLI: PBS, 0.002% Tween-20, 0.02% BSA, temperature not stated; pull-down: lysate in 150 mM KCl, 0.5 mM DTT, 0.5% NP-40, 25 mM Tris-HCl pH 7.5, 4 C overnight
[5] = biological target: T1, hnRNPA1-His (hnRNPA1A); assay: BLI; RNA on streptavidin probe; lower KD than oligo2 but less protein bound; value only in figure; BLI: PBS, 0.002% Tween-20, 0.02% BSA, temperature not stated; pull-down: lysate in 150 mM KCl, 0.5 mM DTT, 0.5% NP-40, 25 mM Tris-HCl pH 7.5, 4 C overnight

T1 sequence (P09651 other isoform, or with tags, fused parts or gaps): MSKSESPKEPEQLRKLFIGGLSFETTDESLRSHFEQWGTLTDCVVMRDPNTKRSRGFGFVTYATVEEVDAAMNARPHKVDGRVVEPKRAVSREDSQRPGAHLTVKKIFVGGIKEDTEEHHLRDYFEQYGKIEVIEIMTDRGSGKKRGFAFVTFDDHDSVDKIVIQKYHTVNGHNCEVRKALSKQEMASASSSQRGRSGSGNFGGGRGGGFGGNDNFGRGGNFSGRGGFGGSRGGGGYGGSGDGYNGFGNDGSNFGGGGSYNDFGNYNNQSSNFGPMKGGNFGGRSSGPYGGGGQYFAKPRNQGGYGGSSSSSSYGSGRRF
S91D/S95D-His, sequence (P09651 other isoform, or with tags, fused parts or gaps S91D;S95D | S91D S95D S91D S95D): as the sequence (P09651 other isoform, or with tags, fused parts or gaps) above, with S91D, S95D counted along it
S91A/S95A-His, sequence (P09651 other isoform, or with tags, fused parts or gaps S91A;S95A | S91A S95A S91A S95A): as the sequence (P09651 other isoform, or with tags, fused parts or gaps) above, with S91A, S95A counted along it

B1: oligo2 (ssRNA)
RNA: ACAACUGCCACAUAGGUAAGGCCAGGCCGC
Which results are given for B1?
binding result [1]: binds; binding result [2]: binds; binding result [3]: binds

B2: oligo1 (ssRNA)
RNA: AGCAGCCUCCUCUGCCCUGCUUCUCCCUAGGUUGUU
Does B2 bind [4]?
Result: binds

B3: oligo2-U13C+A14C (ssRNA)
RNA: B1 RNA with U13C, A14C
Does B3 bind [5]?
Result: binds
